Read-outs that look alike come from different tables or passages of the source.
Columns and labels:
[1] = mouse
Experimental: Blood samples collected from the vena cava were centrifuged at 2500 g for 15 min to obtain serum and the samples were stored at −20° C.
Sera were prepared from blood samples collected from the vena saphena from 3 animals in each group at different time-points during the course of in vivo experimentation. Briefly, ELISA plates were coated over night with human ICAM-1 protein. The following day, plates were incubated with the serum samples. Biotinylated goat-anti-BI-505 was used for detection of BI-505 in the serum samples. Sera were analysed by ELISA to determine BI-505 trough levels. Trough BI-505 serum concentrations were then plotted as a function of dose and were fitted using five parameter log-log curve and XLfit software (IDBS, Guildford, United Kingdom).

[2] = system: endothelial cells (HUVEC, HMVEC); assay: HUVEC and HMVEC apoptosis assay; format: cell-based
Experimental: (FIG. 23G) Antibody-induced endothelial cell apoptosis. HUVEC or HMVEC endothelial cells were incubated with paclitaxel (positive control), BI-505 or isotype control IgG in the presence or absence of cross-linking mAb. Apoptosis was measured by flow-cytometry following staining of cells with Annexin V-AF488.
Based on BI-505's documented ability to confer Fc:FcγR-dependent antitumor activity in malignant B cells, and a proposed general negative role for complement activation with regard to antibody tolerability (Lim et al.; van der Kolk et al., 2001), direct cytotoxic effects (PCD, ADCC, and CDC) of BI-505 in ICAM-1-expressing human peripheral blood B cells and endothelial cells were examined.
HUVEC (Cascade Biologics, pool of donors) and HMVEC (Cascade Biologics) were plated in 6-well plates (80 000-120 000 cells/well) in the presence or absence of 200 U/mL IFNγ, in order to induce ICAM-1 expression. Media was changed the day before apoptosis-induction experiments were performed and titrated concentrations of BI-505, enlimomab or isotype control antibody were added to the cells, in the presence or absence of cross-linking Fab (ab′)2 (same as the B-cell protocol). […] Necrotic cells were identified by increased fluorescence in the FL-4 channel and apoptotic cells by increased signal in the FL-1 channel on a flow cytometer (FACSCalibur, BD Bioscience).

primary patient MM cells = assay: SCID-hu mouse model of multiple myeloma; format: in vivo
Experimental: Bone marrow cells (>20% plasma cells) from myeloma patients (two patients in experiment 1 [top panel] and two different patients in experiment 2 [lower panel]) were injected into transplanted human fetal bones of SCID-hu mice. Four weeks after myeloma cell inoculation mice were divided into four groups to yield similar mean hIgG levels between groups, each group comprising mice grafted with MM cells from the different patient donors used in the experiment, and twice weekly treatment with 2 mg/kg BI-505, 1 mg/kg bortezomib or 2 mg/kg control human IgG was started (arrow). […] Graphs show mean hIgG concentrations.
Primary human MM cells depend on interactions with bone marrow stromal cells to proliferate and survive. The SCID-hu mouse harbors a human microenvironment where primary patient MM cells proliferate and induce pathology similar to human clinical MM (Yaccoby et al., 1998). MM cell derived human IgG titers were detected (>10 μg/ml) in the serum of SCID-hu mice four weeks after implantation of human MM cells to transplanted human bones, at which time treatment with antibodies (2 mg/kg) or bortezomib (1 mg/kg) began. Human IgG titers increased steadily in control treated SCID-hu mice over the course of experimentation to reach maximal concentrations of 40±5 μg/ml just before sacrifice (FIG. 18B and FIG. 19). […] Two independent experiments were performed with similar results (FIG. 18B and FIG. 19), each with MM cells from two different patient donors (n=4).
Human fetal femurs and tibias, obtained at 17 to 22 gestational weeks, were cut into fragments and implanted subcutaneously in SCID mice (SCID-hu) at age 6 to 8 weeks. Each animal was implanted with one bone fragment. Four weeks after bone implantation, 2 to 14×10^6 bone marrow cells from each patient (two patients per experiment for a total of four patients in two independent experiments, n=4), containing>20% plasma cells were injected directly into the human bone of 6 to 8 SCID-hu mice in a final volume of 30 to 40 μl of phosphate-buffered saline (PBS). One group of mice was implanted with bone only and served as “healthy” bone control. Mouse sera were serially monitored for human immunoglobulin (hIg) and the isotype levels were used as an indicator of myeloma cell growth by elisa. When hIg level reached 10 μg/mL or higher in 2 consecutive measurements after 4 weeks of injection of the tumor cells, the mice were divided into four groups to yield similar mean hIgG levels between groups, each group comprising mice grafted with MM cells from the different patient donors used in each experiment. The four treatment groups were: healthy control group (no myeloma cells injected and no drug treatment), isotype control group (myeloma cells injected and treated with isotype control IgG, 2 mg/kg, i.p., twice weekly), BI505 group (myeloma cells injected and treated with BI505, 2 mg/kg, i.p., twice weekly) and bortezomib group (myeloma cells injected and treated with 1 mg/kg, i.p., twice weekly). In some graphs hIgG levels were normalized to pretreatment (4 weeks) levels and the percent increase or decrease in hIgG levels as a function of treatment and time was analyzed. Normalized data from animals receiving the same treatment (control IgG, BI-505 or bortezomib) but grafted with MM cells from each of the four different patient donors in the two experiments were pooled and statistical difference was assessed by grouped 2-way ANOVA test and Bonferroni's posttest using GraphPad Prism 5 software. Patient myeloma cells were taken after informed consent and with the approval of the local ethics committee. For x-radiography evaluation and quantification of bone mineral density (BMD) mice in the four groups were sacrificed and the implanted human bones were taken out and fixed in 10% formalin solution. Radiographs were taken with an AXR Minishot-100 beryllium source instrument (Associated X-Ray Imaging Corp., Haverhill, Mass., USA) and 100 s exposure at 30 kV. […]

[3] = Single dose study in the rat (BI-505 pharmacokinetics); format: in vivo; details: for tmax: iv
Source text: AUC0-tlast=area under the serum concentration-time curve from time zero to last quantifiable concentration; AUC0-∞=area under the serum concentration-time curve from time zero to infinity; Cmax=maximum observed serum concentration; tmax=time of maximum observed serum concentration; t1/2=apparent terminal elimination half-life; CL=total serum clearance; Vss=apparent volume of distribution at steady-state; Vz=apparent volume of distribution during the terminal elimination phase. There were six animals per sex and treatment group.
Rats (n=6 per sex and treatment, for a total of 36 rats) were given 0.5, 2.5 or 10 mg/kg BI-505 as a single i.v. treatment. Blood was drawn from the caudal vein of rats at the following time-points: pre-dose, 15 min, 30 min, 1 hr, 2 hr, 8 hr, 24 hr, 2 days, 3 days, 5 days, 8 days, 2 weeks and 3 weeks. BI-505 serum concentrations were determined by ELISA from 15-18 samples per time-point, collected from alternating animals. Pharmacokinetics was calculated from the individual animal serum concentration-time data of BI-505 using non-compartmental analyses. […]

B1: B11: fully human IgG1 antibody specific for ICAM-1; VH and VL sequences of FIG. 10 (SEQ ID NOs. 6 and 8) (antibody, listed as Homo sapiens, V domains shown)
VH: EVQLLESGGGLVQPGGSLRLSCAASGFTFSNAWMSWVRQAPGKGLEWVAFIWYDGSNKYYADSVKGRFTISRDNSKNTLYLQMNSLRAEDTAVYYCARYSGWYFDYWGQGTLVTVSS
VL: QSVLTQPPSASGTPGQRVTISCTGSSSNIGAGYDVHWYQQLPGTAPKLLIYDNNNRPSGVPDRFSGSKSGTSASLAISGLRSEDEADYYCQSYDSSLSAWLFGGGTKLTVLG
[1]; 0.02 mg/kg
  In vivo serum concentrations: 0.06 ± 0.02 µg/mL
[1]; 0.2 mg/kg
  In vivo serum concentrations: 1.2 ± 0.4 µg/mL
[1]; 2 mg/kg
  In vivo serum concentrations: 20 ± 2.9 µg/mL
[2]
  cell death in normal cells: did not induce cell death
Primary patient MM cells; 2 mg/kg twice weekly from four weeks after MM cell implantation
  serum hIgG relative to pre-treatment levels: 91±22%
Primary patient MM cells; TRAP staining, compared to control-treated mice
  bone osteoclasts: reduced numbers of bone osteoclasts
Primary patient MM cells; X-radiography of implanted human bones
  bone mineral density: decreased loss of bone mineral density
Primary patient MM cells; antibody 2 mg/kg or bortezomib 1 mg/kg twice weekly
  serum human IgG levels: halted or reduced serum human IgG levels to below pre-treatment levels
Primary patient MM cells; human CD138 immunohistochemistry
  tumor burden in human bone implants: decreased tumor burden
[3]; Males, 10 mg/kg single IV
  Cmax: 281 µg/mL
[3]; in vivo
  anti-BI-505 antibodies: no anti-BI-505 antibodies were detected
  half-life: 12 to 13 days
  half-life corresponding in man: 2-3 weeks
[3]; in vivo, 0.5 mg/kg
  tmax: 15 min
[3]; in vivo, 10 mg/kg
  tmax: 30 min
